Results from patent US20060039859A1.
Square brackets hold non-standard residues; d marks the D form. Ends that are not written are not given here.

Biological target: Aβ1-40 fibrils (Homo sapiens (Human)) (UniProt P05067)
Assay: saturation radioligand binding to Aβ fibrils in PBS, RT 90 min, Centricon 100 kDa filtration

Sequence of Aβ1-40 fibrils (Homo sapiens (Human)) (P05067 672-711 limits assumed): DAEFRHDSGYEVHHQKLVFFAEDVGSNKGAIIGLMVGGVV

B1: 99mTc-peptide (technetium-99m-labeled BBB permeant Aβ-targeted peptide KKLVFFAεKGC) (peptide)
peptide: [dK][dK][dL][dV][dF][dF][dA]KG[dC]
modifications: not fully specified (residue 8); printed as KKLVFFAεKGC; also: 99mTc chelated by εKGC (N3S core)
Kd: 352 nM
